The term IC50 denotes the concentration at which inhibition is half-maximal. A high value points to weaker potency.

The chains are these.
T1: human Protein S (UniProt P07225 42-676)
T1 chain: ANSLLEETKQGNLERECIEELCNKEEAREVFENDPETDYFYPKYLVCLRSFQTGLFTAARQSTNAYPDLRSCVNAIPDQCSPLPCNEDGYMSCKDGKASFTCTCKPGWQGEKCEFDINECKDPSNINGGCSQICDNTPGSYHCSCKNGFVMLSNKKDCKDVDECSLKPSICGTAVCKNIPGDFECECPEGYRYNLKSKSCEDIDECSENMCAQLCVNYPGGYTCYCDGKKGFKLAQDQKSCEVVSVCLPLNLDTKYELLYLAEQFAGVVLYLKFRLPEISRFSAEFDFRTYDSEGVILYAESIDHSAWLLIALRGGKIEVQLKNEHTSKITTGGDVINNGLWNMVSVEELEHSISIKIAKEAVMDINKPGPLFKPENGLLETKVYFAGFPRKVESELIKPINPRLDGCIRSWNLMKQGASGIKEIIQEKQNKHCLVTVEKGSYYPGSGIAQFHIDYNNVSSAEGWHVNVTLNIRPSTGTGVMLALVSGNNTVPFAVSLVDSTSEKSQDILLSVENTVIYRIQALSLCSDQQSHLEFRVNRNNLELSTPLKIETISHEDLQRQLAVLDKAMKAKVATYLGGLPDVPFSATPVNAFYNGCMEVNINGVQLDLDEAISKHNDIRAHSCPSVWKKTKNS

The assay addresses T1, human Protein S. In words: LANCE competition. In short, it runs like this: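 A homogeneous time-resolved FRET (LANCE) competition format paired europium-labelled Protein S and ULight-labelled streptavidin with a biotinylated tracer peptide, against which unlabelled test peptide was titrated three-fold. With final concentrations of 10 nM Protein S, 100 nM streptavidin and 300 nM tracer in 50 µl, or 2 nM Protein S and 60 nM tracer when a Tecan F500 was used, samples stood 1 hour at room temperature. Emission was read at 665 nm with excitation at 340 nm. Non-linear regression of these signals gave the IC50.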
(TR-FRET usually uses a lanthanide donor and a delayed reading to cut background.)
Ac-ESYVSAGWYDYNTDTYYEFY-NH2 [JBS3262] gave an IC50 of 1 nM.

Turning to Ac-RYIVSAGWYDIIQDTYFEFY-NH2 [JBS3285], the half-maximal inhibitory concentration (IC50) stood at 1.2 nM.

Molecule Ac-VIEVSAGWYDYNEDKYYEFW-NH2 [JBS3303] showed an IC50 of 1.7 nM.

Consider Ac-HYNVSAGWYDYNNDEYFEFY-NH2 [JBS3307], for which the half-maximal inhibitory concentration (IC50) was found to be 1.4 nM.

Ac-EYTISAGWYDYNTDMYYEFV-NH2 [JBS3254]: the IC50 came out at 1.6 nM.

Ac-YNIVSAGWYDYNKDTYYEFF-NH2 [JBS3279] displayed an IC50 of 1.5 nM.

The molecule Ac-EYSVSAGWYDYNTDVYYEFE-NH2 [JBS3266] registered an IC50 of 1.6 nM.

On to Ac-NMYVSAGWYNYNEDTYEEFY-NH2 [JBS3289], for which the IC50 was found to be 2.5 nM. Against the preceding molecule, the IC50 is about 1.6-fold higher.

Turning to Ac-YGIVEAGWYEYNTDEYIEFW-NH2 [JBS3256], the 50% inhibitory concentration (IC50) was 1.7 nM.

Consider Ac-YGIVSAGWYEYNTDIYEEFW-NH2 [JBS3257], for which the half-maximal inhibitory concentration (IC50) is 14.8 nM.

Ac-VFYVSAGWYDYNDDKYYEFW-NH2 [JBS3304]: the IC50 was found to be 1.5 nM.

For Ac-YVTVSAGWYDYNKDEYFEFY-NH2 [JBS3309], the IC50 was 1.1 nM.

As for Ac-EATVSIGWYDYNKDEYYEFY-NH2 [JBS3291], the half-inhibitory concentration (IC50) amounted to 8 nM.

In turn, Ac-FGIVSAGWYDYNTDTYYEPY-NH2 [JBS3269] came in with an IC50 of 56.9 nM.

As for Ac-EYTVSAGWYNYNADEYYEFE-NH2 [JBS3253], the half-inhibitory concentration (IC50) came to 2.8 nM. This IC50 lies about 20-fold lower than the previous one.

Molecule Ac-FEYVSAGWYDYNTDTYYEFY-NH2 [JBS3271] had an IC50 of 1.9 nM.

On to Ac-EYEVSAGWYDYNNDVYNEFY-NH2 [JBS3277], for which the half-maximal inhibitory concentration (IC50) stood at 3.4 nM.

Molecule Ac-EFIVSAGWYDYNKDTYIEFE-NH2 [JBS3292] came in with a concentration for half-maximal inhibition (IC50) of 2.7 nM. This IC50 and that of the molecule before are within 1.5-fold of each other.

The molecule Ac-FEYVIAGWYDYNTDTYHEFN-NH2 [JBS3272] returned an IC50 of 1.4 nM.

In turn, Ac-EYFVSAGWYDYNADIYYEFD-NH2 [JBS3278] returned an IC50 of 1.1 nM.

Take Ac-EVEVSAGWYDYNDDKYYEFG-NH2 [JBS3276]: the concentration for half-maximal inhibition (IC50) is 3 nM. Against the preceding molecule, the IC50 is about 2.7-fold higher.

Regarding Ac-KMHVSIGWYDYNNDIYYEFY-NH2 [JBS3298], the IC50 stood at 1 nM.

As to Ac-NYIVSAGWYDYNNDEYIEFY-NH2 [JBS3286], the IC50 was 1.3 nM. This IC50 and that of the molecule before are within 1.5-fold of each other.

In turn, Ac-EYTASAGWYDYNSDTYYEFE-NH2 [JBS3255] came in with an IC50 of 9.5 nM.

In the case of Ac-YNEVSAGWYDMNEDTYYEFY-NH2 [JBS3280], the half-maximal inhibitory concentration (IC50) turned out to be 5.3 nM.

For Ac-ESIVSAGWYDYNTDTYYEFT-NH2 [JBS3268], the 50% inhibitory concentration (IC50) stood at 1.5 nM.

Ac-EAMVSAGWYDYMNDTYYEFE-NH2 [JBS3293] yielded an IC50 of 2.1 nM.

On to Ac-EYIVEAGWYDINEDKYLEFY-NH2 [JBS3264], for which the IC50 is 2 nM.

In the case of EYYVSAGWYDYNTDTYYEFEC [JBS3320], the IC50 came to 0.5 nM.

The molecule Ac-AYIVEAGWYDYNTDTYEEFW-NH2 [JBS3305] yielded a concentration for half-maximal inhibition (IC50) of 3.7 nM.

The molecule Ac-EVEVSAGWYEYNTDTYYEFW-NH2 [JBS3282] yielded a concentration for half-maximal inhibition (IC50) of 4.1 nM.

Regarding Ac-IIMVSAGWYDYNTDTYYEFE-NH2 [JBS3301], the IC50 came to 1.3 nM.

Ac-EVHVSAGWYDYNNDTYYEFG-NH2 [JBS3275] showed a 50% inhibitory concentration (IC50) of 1.2 nM.

For the molecule Ac-KVEVSAGWYDYNKDVYYEFE-NH2 [JBS3299], the concentration for half-maximal inhibition (IC50) is 2 nM.

For Ac-EHIVSAGWYDYNMDEYYEFW-NH2 [JBS3294], the half-maximal inhibitory concentration (IC50) amounted to 6.3 nM.

Take Ac-EVYVSAGWYNYNEDAYYEFW-NH2 [JBS3287]: the 50% inhibitory concentration (IC50) is 1.2 nM.

In the case of Ac-ITHVTAGWYDYNTDTYYEFI-NH2 [JBS3302], the IC50 amounted to 3.5 nM.

For Ac-KDKVSAGWYDYNSDTYYEFT-NH2 [JBS3300], the IC50 is 3.2 nM.

The molecule Ac-WYEVEIGWYDYNTDTYQEFY-NH2 [JBS3308] showed a half-inhibitory concentration (IC50) of 1.4 nM.

Ac-EGYVSAGWYDYNKDIYLEFE-NH2 [JBS3259] yielded an IC50 of 3.7 nM.

The molecule Ac-EYSVSAGWYDYYNDTYYEFY-NH2 [JBS3265] displayed an IC50 of 1.4 nM.

Molecule Ac-ESYVSAGWYDYNIDAYYEFY-NH2 [JBS3261] gave a 50% inhibitory concentration (IC50) of 2 nM.

As to Ac-DVYVSAGWYDYNEDTYYEFS-NH2 [JBS3288], the concentration for half-maximal inhibition (IC50) is 3.1 nM.

Ac-ESIVSAGWYDYNTDEYYEFF-NH2 [JBS3267] registered an IC50 of 1.7 nM. This IC50 lies about 1.8-fold lower than the previous one.

For the origin of these results see patent US20150246947A1 (BAXALTA, published 2015).
